According to patent US20160168210A1, “DERIVATIVES OF COLLAGEN-BINDING HAIRPIN PEPTIDES” (NATIONAL RESEARCH COUNCIL OF CANADA, priority 2012, published 2016):
“Also recorded” adds a separate entry of the source. Where no end group is shown, it is not given here.

Legend:
[1] = target: rat-tail collagen type I (Rattus norvegicus, UniProt P02454+P02466); assay: Retention of fluorescent peptide by collagen hydrogels, fluorescence imaging; format: binding; design: used together with rat-tail collagen (type I); from tissue; host or cells: rat tail; conditions: pre-formed or pre-mixed collagen hydrogel disks
Chain of rat-tail collagen type I (P02466 86-1125): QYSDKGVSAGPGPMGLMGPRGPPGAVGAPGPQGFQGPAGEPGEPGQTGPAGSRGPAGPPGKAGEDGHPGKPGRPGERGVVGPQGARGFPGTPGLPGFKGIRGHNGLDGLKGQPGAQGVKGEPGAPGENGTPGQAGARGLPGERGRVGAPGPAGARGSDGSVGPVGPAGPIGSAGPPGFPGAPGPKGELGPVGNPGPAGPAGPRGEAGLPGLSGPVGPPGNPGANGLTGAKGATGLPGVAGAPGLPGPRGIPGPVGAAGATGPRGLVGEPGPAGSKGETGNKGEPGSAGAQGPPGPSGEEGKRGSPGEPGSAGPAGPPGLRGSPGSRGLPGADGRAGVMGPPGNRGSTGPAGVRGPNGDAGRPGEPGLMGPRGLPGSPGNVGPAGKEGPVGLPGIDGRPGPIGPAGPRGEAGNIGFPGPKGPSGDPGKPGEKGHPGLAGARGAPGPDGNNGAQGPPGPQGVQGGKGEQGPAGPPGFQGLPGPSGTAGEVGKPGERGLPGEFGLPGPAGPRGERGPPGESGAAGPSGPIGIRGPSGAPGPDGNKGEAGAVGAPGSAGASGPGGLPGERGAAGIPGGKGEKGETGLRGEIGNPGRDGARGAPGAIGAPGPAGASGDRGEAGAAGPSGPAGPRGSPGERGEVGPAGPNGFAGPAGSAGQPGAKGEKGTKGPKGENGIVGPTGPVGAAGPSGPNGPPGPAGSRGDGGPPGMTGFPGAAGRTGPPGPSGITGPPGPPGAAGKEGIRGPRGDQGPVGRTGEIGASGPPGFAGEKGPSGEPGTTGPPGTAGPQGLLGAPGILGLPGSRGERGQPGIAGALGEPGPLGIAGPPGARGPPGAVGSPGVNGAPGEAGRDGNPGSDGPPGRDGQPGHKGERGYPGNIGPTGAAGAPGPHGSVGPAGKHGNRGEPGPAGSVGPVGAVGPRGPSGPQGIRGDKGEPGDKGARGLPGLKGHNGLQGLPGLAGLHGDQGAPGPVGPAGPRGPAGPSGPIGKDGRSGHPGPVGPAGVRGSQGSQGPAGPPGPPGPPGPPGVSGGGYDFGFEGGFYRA
Chain of rat-tail collagen type I (P02454 152-1207): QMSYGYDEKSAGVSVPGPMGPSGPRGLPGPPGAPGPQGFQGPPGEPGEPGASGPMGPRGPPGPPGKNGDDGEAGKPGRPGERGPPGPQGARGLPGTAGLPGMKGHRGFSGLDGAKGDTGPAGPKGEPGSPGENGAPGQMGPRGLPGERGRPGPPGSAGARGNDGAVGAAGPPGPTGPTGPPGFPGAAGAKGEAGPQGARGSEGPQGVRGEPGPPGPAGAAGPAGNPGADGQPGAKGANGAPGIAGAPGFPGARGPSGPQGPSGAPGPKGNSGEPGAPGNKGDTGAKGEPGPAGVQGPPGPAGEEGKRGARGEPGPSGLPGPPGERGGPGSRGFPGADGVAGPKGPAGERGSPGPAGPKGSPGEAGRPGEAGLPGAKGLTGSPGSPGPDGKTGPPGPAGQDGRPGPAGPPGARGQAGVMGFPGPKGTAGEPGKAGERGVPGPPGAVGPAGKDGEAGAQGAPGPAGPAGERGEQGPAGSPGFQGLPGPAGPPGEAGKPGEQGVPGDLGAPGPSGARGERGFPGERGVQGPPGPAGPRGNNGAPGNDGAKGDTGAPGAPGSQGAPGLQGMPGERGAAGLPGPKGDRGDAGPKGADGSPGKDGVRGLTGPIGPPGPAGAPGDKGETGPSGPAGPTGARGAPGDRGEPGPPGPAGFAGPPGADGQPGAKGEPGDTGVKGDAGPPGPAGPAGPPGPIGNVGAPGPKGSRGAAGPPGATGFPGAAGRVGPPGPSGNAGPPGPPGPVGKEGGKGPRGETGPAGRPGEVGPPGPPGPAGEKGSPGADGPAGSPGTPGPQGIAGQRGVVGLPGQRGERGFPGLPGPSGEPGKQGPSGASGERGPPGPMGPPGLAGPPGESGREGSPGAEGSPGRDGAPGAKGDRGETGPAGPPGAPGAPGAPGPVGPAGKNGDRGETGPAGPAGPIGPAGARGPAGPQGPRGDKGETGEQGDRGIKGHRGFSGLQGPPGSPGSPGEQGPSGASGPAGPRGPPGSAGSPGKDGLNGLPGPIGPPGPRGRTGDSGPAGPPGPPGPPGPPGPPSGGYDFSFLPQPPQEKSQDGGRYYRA
Source text: Peptide P4247 conjugated to a fluorescent probe, i.e. FL4247 (Table 5), was therefore used together with rat-tail collagen (type I) to assess the binding capacity of CBLH peptides to collagen and to illustrate the potential applications of collagen hydrogels formulated with compounds of this invention. The fluorescent probe, HiLyte Fluor750 (AnaSpec, California) was selected with a maximum absorption at an optical wavelength of 750 nm and with a maximum fluorescence emission at 800 nm. Therefore, the intensity of fluorescence emissions would also be optimal for in vivo imaging of tissue locations with a differential enrichment of the injected fluorescent compound (see Examples 8-10). […] For this first experiment, FL4247 in a hydrogel solution were loaded onto the pre-formed collagen hydrogels and molecular diffusion off FL4247 was followed by fluorescence imaging (FIG. 8A, left image). […] Such FL4247-collagen hydrogel preparations (FIG. 8A, right) were then submerged in a large volume of buffer solutions (e.g. the PBS) and the degree of FL4247 retention by the hydrogels were followed by fluorescence imaging (FIG. 8B). […] However, the observed fluorescence intensity was still restricted close to the center of the hydrogel disks 30 minutes after the FL4247 solution was applied (FIG. 8A, left). […]

[2] = In vivo biodistribution by fluorescence imaging in a normal Sprague-Dawley rat
Description: (§1) Immune-compromised nude mice (20-30 g) and normal Sprague-Dawley rats (250-310 g; Charles River Laboratories, St-Constant, QC, Canada) were acclimated for at least 3 days prior to the start of the study. Animals were housed in microisolator cages and were kept on a 12-hr light/dark cycle with constant temperature and humidity. Food and water were provided ad libitum. Stock solutions of various agents and peptides of this invention were diluted in saline (0.9% sodium chloride) prior to use. Saline formulations of FL4247 were prepared in such a way that similar dose levels were achieved based on the body weight of the experimental animals used for the study (i.e. in mg/kg).
(§2) Of the different methods available, imaging with fluorescently-labeled test compounds is particularly useful for assessing the in vivo biodistribution in real time with live animals. Therefore, the biodistribution of FL4247 was followed over time in two nude mice each for two routes of administration: 1) intravenous (I.V.); and 2) intraperitoneal (I.P.). Another imaging experiment was carried out using a Sprague-Darley rat (Charles River Laboratories, St-Constant, QC, Canada) through a tail-vein (I.V.) administration of an FL4247 solution.
The biodistribution was also assessed using one rat in which FL4247 was injected intravenously (I.V.) through the tail vein. To illustrate the capacity for image contrast, only 10% (one tenth or 1/10) of FL4247 was used with the normal rat (FIG. 9C) as compared to the dosage of FL4247 used for imaging vascular injury in venous thrombosis (see FIG. 10). […] Then the fluorescence became more intense in both kidneys for the next 25 minutes and finally the fluorescence appeared in the bladder for the remainder of the experiment time. Although the head was not imaged during this experiment, ex vivo imaging was carried out at the end of the live-animal protocol with the dissected brain, heart, liver and both kidneys. A small amount of fluorescence was detected in the liver and a much stronger signal (about 10 times) was present in both kidneys.

[3] = system: abdominal vena cava injured by FeCl3
Source text: The application of ferric chloride on venous and arterial vessels was therefore the method used to produce the inflamed vasculature in the animal model. The carotid artery (arterial model) and the abdominal vena cava (venous model) were the chosen vessels for the imaging experiments with injured blood vessels undergong thrombosis.
The FeCl3 rat venous model of thrombosis was generated as described (Wang 2005) with some modifications. Briefly, rats were anesthetized with a 2.5% isoflurane/oxygen mixture and placed on a heat source (35-37° C.). The vena cava was then exposed via a midline incision and the region between the renal and iliolumbar veins was isolated. One minute after drug administration, a piece of filter paper (Gel Blot Paper, GB003, Whatman, Piscataway, N.J., USA; 7 mm diameter) saturated with 10% FeCl3 (EMD Chemicals Inc., Gibbstown, N.J., USA) was placed on the exposed surface of the vena cava and incubated for 3.5 minutes. During the application of FeCl3, the abdominal region was covered with aluminum foil. At the end of the incubation period, the filter paper was removed and the exposed viscera covered with a saline-soaked gauze.
In these imaging experiments, there were also a 30-minute waiting time after introduction of FeCl3 to the exposed vena cava to ensure the development of substantial vascular injury and the deposition of a thrombus.

[4] = system: fibrotic tissues of the lung; assay: Fluorescence imaging in bleomycin-induced mouse model of pulmonary fibrosis; format: in vivo
Source text: Tissue localization of the representative compound FL4247 containing a collagen-binding hairpin peptide was further examined using a bleomycin-induced mouse model of pulmonary fibrosis. […] This is accompanied by fluorescence localization into generally inflamed tissues in the oral cavities of these mice, which are induced through either mechanical or contact damages. It can therefore be concluded that FL4247 has an affinity for inflamed/fibrosing tissues in vivo, very likely due to specific binding of the collagen-responsive hairpin moiety to newly-secreted collagen enriched in these tissue environments.
Specifically, pulmonary instillation of bleomysin was used to initiate pulmonary fibrosis in a mouse model using immune-compromised nude mice. The objective was to determine if the fluorescent FL4247 compound would localize in fibrotic tissues of the lung induced by bleomycin. […] The imaging data thus obtained confirm that: 1) the fluorescence detected in vivo in the thorax region was indeed coming from the lung and from the heart; and 2) since no fluorescence was detected in the lung and heart of the control mouse, the signal detected in the fibrotic mouse injected with FL4247 is very likely a result of different lung tissues induced by fibrosis. […]

[5] = In vivo biodistribution by fluorescence imaging in nude mice; design: species or system mouse; conditions: for fluorescence biodistribution: ~0.25 mg/kg
Description: as §1, §2
The I.V. injection route depicted similar results in both studies even though the imaging sequence parameters were different (study 1=1 image/2 minutes over 30 minutes; study 2=1 image/5 minutes over 60 minutes).
Similar results were obtained in two studies involving the I.P. route of injection. Different imaging parameters were again used (study 1=1 image/2 minutes over 60 minutes; study 2=1 image/5 minutes over 90 minutes). The I.P. injection of FL4247 led to the accumulation of the compound at the level of the head within 5 minutes. […] The distribution of FL4247 over the entire body is complete within 30 minutes accompanied by a slow accumulation of fluorescence in the bladder region.

## IRFTDGEWTWDDATKTWTWTEGGC-Fluor750 (not fully specified (C-terminus); printed as IRFTDGEWTWDDATKTWTWTEGGC-Fluor750; also: HiLyte Fluor750 conjugate) [FL4247, peptide P4247 conjugated to fluorescent probe HiLyte Fluor750]
[1]
  diffusion in / retention by collagen hydrogels (fluorescence): significantly retarded the diffusion of FL4247 in the gel matrix; also recorded: could resist outward diffusion into buffer solutions
[2]; I.V. tail vein, 0.025 mg/kg
  fluorescence biodistribution (live and ex vivo imaging): differential accumulation in the head region, in the kidneys and in the bladder; also recorded: Nothing was detected in the brain and heart organs
[2]; I.V., end of live-animal protocol
  ex vivo signal in both kidneys relative to liver: about 10 times
[2]; I.V., within 5 minutes
  decrease of liver fluorescence: 10 times
[3]; I.V. 30 minutes after FeCl3 application, ~0.2 mg/kg
  fluorescence at the injured abdominal vena cava: strong fluorescence signal
[3]; ex vivo imaging, I.V. 30 minutes after FeCl3
  signal in dissected thrombus weaker than along injured vasculature: about 3 times
[3]; rat venous thrombosis model, I.V.
  clearance: rapid clearance of FL4247 via the kidneys to the bladder
[4]; I.V.
  mice with I.V. injection showing marked fluorescence in the lung: two out of three mice
[4]; tail vein injection, ~0.5 mg/kg
  fluorescence retention in fibrotic lung: high degree of FL4247 fluorescence was retained in the area of the lung
[5]; I.P.
  time to accumulation at the level of the head: ≤ 5 min
  time to complete distribution over the entire body: ≤ 30 min
  fluorescence biodistribution: far inferior over time compared to the I.V. injection; also recorded: no specific local accumulation of FL4247 was noted
[5]; I.V.
  fluorescence biodistribution: accumulated rapidly in the head region followed by a slow decrease of fluorescent intensity over time; also recorded: accumulated in the bladder; also recorded: no other organs appeared to accumulate or retain FL4247
